{"source": "paper PMC9864903", "about": "“Imaging of the Glucose-Dependent Insulinotropic Polypeptide Receptor Using a Novel Radiolabeled Peptide Rationally Designed Based on Endogenous GIP and Synthetic Exendin-4 Sequences” (Pharmaceuticals, 2022)", "key": {"[1]": {"experiment": "chemical stability of Ga-C803-GIP at ambient temperature and pH 4.5", "assay_type": "physicochemical", "details": "for at least one week at ambient temperature and pH 4.5", "source_text": "C803-GIP has a sequence partially similar to that of hGIP(1-30), wherein L-Alanine at position 2 was exchanged to D-Alanine, Methionine at position 14 was exchanged to Leucine, Aspartic acid at position 21 was exchanged to Glutamic acid, Valine at position 23 was exchanged to Isoleucine, Asparagine at position 24 was exchanged to Glutamic acid, Leucine at position 27 was exchanged to Lysine, and both Glutamine at position 29 and Lysine at position 30 were exchanged to Glycine. The sequence was amended with Histidine (31), Proline (32), and seven more residues corresponding to those found in exendin-4 (Serine(33)-Glycine(34)-Alanine(35)-Proline(36)-Proline(37)-Proline(38)-Serine(39)). The peptide sequence was conjugated via terminal Serine(39) to a DOTA chelator moiety functionalized with a vinyl sulfone linker and cysteine amide (Table 1). C803-GIP was loaded with stable isotopes of gallium to yield Ga-C803-GIP for the subsequent investigation of the stability and biological activity. Ga-C803-GIP was stable with a purity of over 95% for at least one week at ambient temperature and pH 4.5."}, "[2]": {"experiment": "pharmacokinetics in rats after subcutaneous administration", "assay_type": "in vivo", "details": "rat", "source_text": "The potency of the peptide conjugate in terms of EC50 was studied using C803-GIP and C803-GIP loaded with a stable isotope of gallium (Ga-C803-GIP) in HEK293 cells transfected with the GIPR from human, monkey (NHP), and rat species. In addition, the cross-reactivity was studied in HEK293 cells transfected with the GLP1-R and GCGR. […] In contrast, the EC50 for the rat GIPR was one order of magnitude poorer. […] The pharmacokinetic properties were investigated in vivo in rats. […] The average plasma concentration calculated to the infinity (AUCinf) was 1370 h*ng/mL.\nFigure 1 Plasma concentration of Ga-C803-GIP measured at 3, 6, 9.6, 19.8, 30, 60, 120, and 240 min post subcutaneous administration in rats (n = 3). The error bars are not seen due to the low SD values."}, "[3]": {"experiment": "dynamic PET/CT organ distribution in pig", "assay_type": "in vivo", "details": "infusion of GIP(1-42) 20 pmol/kg/min", "source_text": "An anesthetized pig (25 kg) was positioned to include the abdomen with pancreas in the center of the 25 cm axial field of view of a Discovery MI PET/CT scanner (GE Healthcare, MI, USA) by assistance of a low-dose CT scout view (140 kV, 10 mAs). The details of the animal handling, preparation, and anesthesia have been previously described.\nAttenuation correction was acquired by a 140 kV, 10–80 mA CT examination. The administration of [^68Ga]Ga-C803-GIP (17.3 MBq, corresponding to approximately 2.5 μg peptide or 0.10 μg/kg) was made upon the start of the baseline dynamic scan lasting for 90 min (30 frames; […]). The dynamic scan was followed by a static scan over the brain from 90–120 min post administration. A second PET investigation was performed after an additional 2 h to allow the radioactivity from the first scan to fade from the circulation by decay and excretion.\nThe GIP(1-42) infusion was continued until the end of the PET scan. Finally, after the last PET scan, a contrast-enhanced CT scan was performed to assist delineation of the tissues, e.g., the pancreas.\nSegmentation of the tissues of interest (descending aorta, pancreas, spleen, kidney, liver, and muscle) was performed in PMOD (PMOD Technologies), and time–activity curves were expressed as SUV as detailed above."}, "GIPR": {"test_system": "GIPR", "details": "affinity for the GIPR; cited from earlier work", "source_text": "This effect may be due to the exchange of Aib(2) to A(2), L(10) to Y(10), R(16) to K(16), E(20) to Q(20), L(27) to K(27), K(31) to H(31), and the addition of the C-terminal tail ((32-39); […]). [^68Ga]Ga-C803-GIP was furthermore evaluated for its affinity, internalization, and binding specificity towards the GIPR."}}, "note": "Entries after “also recorded” stand apart in the source; their conditions may differ."}
{"compound": "CC[C@H](C)[C@H](NC(=O)[C@H](CO)NC(=O)[C@H](Cc1ccc(O)cc1)NC(=O)[C@H](CC(=O)O)NC(=O)[C@H](CO)NC(=O)[C@@H](NC(=O)[C@H](Cc1ccccc1)NC(=O)[C@@H](NC(=O)CNC(=O)[C@H](CCC(=O)O)NC(=O)[C@@H](C)NC(=O)[C@@H](N)Cc1ccc(O)cc1)[C@@H](C)O)[C@@H](C)CC)C(=O)N[C@@H](C)C(=O)N[C@@H](CC(C)C)C(=O)N[C@@H](CC(=O)O)C(=O)N[C@@H](CCCCN)C(=O)N[C@H](C(=O)N[C@@H](Cc1c[nH]cn1)C(=O)N[C@@H](CCC(N)=O)C(=O)N[C@@H](CCC(N)=O)C(=O)N[C@@H](CCC(=O)O)C(=O)N[C@@H](Cc1ccccc1)C(=O)N[C@H](C(=O)N[C@@H](CCC(=O)O)C(=O)N[C@@H](Cc1c[nH]c2ccccc12)C(=O)N[C@@H](CC(C)C)C(=O)N[C@@H](CCCCN)C(=O)N[C@@H](C)C(=O)NCC(=O)NCC(=O)N[C@@H](Cc1c[nH]cn1)C(=O)N1CCC[C@H]1C(=O)N[C@@H](CO)C(=O)NCC(=O)N[C@@H](C)C(=O)N1CCC[C@H]1C(=O)N1CCC[C@H]1C(=O)N1CCC[C@H]1C(=O)N[C@@H](CO)C(=O)N[C@@H](CSCCS(=O)(=O)CCN1CCN(CC(=O)O)CCN(CC(=O)O)CCN(CC(=O)O)CC1)C(N)=O)[C@@H](C)CC)[C@@H](C)CC", "note": "[Ga-C803-GIP]", "values": [{"measurement": "purity on storage (stability)", "setting": "[1]", "value": "over 95%"}, {"measurement": "half-life", "setting": "[2]; plasma, sc, 1 mg/kg, n = 3", "value": 22.8, "unit": "min"}, {"measurement": "AUCinf", "setting": "[2]; 1 mg/kg, n = 3", "value": 1370, "unit": "ng·h/mL"}, {"measurement": "plasma clearance (CL)", "setting": "[2]; 1 mg/kg, n = 3", "value": 0.73, "unit": "L/h/kg"}, {"measurement": "plasma concentration at the 240 min time point", "setting": "[2]; n = 3, 240 min post administration", "value": "below the limit of detection"}]}
{"compound": "YAEGTFISDYSIAMDKIHQQDFVNWLLAQKGKKNDWKHNITQ [GIP(1-42), reference compound]", "values": [{"measurement": "effect of GIP(1-42) on uptake of [68Ga]Ga-C803-GIP in tissues", "setting": "[3]", "value": "did not reduce the uptake; also recorded: did not affect the uptake pattern"}]}
{"compound": "[Lys37(111In-DTPA)]N-acetyl-GIP1-42", "values": [{"measurement": "IC50", "setting": "GIPR", "value": 4.8, "unit": "µM"}]}
